The text below walks through data of publication doi:10.1101/2023.11.29.569239.

In data set [1] the target is T1, MBP-DDX3Y full-length (UniProt O15523 1-660). In words: EMSA.
The target in data set [2] is T2, MBP-DDX3X full-length (UniProt O00571 1-662). The experiment in a line: EMSA.
For the next data set, the target named is MBP-ΔΔ DDX3X (UniProt O00571 132-607). The experiment in a line: EMSA.
The target in the next data set is MBP-ΔΔ DDX3Y (UniProt O15523 130-605). In words: EMSA.
Data set [3] addresses T1, MBP-DDX3Y full-length. The experiment in a line: single-particle FRET.
Data set [4] concerns the target T2, MBP-DDX3X full-length. The experiment in a line: single-particle FRET.

T2 sequence (O00571 whole entry): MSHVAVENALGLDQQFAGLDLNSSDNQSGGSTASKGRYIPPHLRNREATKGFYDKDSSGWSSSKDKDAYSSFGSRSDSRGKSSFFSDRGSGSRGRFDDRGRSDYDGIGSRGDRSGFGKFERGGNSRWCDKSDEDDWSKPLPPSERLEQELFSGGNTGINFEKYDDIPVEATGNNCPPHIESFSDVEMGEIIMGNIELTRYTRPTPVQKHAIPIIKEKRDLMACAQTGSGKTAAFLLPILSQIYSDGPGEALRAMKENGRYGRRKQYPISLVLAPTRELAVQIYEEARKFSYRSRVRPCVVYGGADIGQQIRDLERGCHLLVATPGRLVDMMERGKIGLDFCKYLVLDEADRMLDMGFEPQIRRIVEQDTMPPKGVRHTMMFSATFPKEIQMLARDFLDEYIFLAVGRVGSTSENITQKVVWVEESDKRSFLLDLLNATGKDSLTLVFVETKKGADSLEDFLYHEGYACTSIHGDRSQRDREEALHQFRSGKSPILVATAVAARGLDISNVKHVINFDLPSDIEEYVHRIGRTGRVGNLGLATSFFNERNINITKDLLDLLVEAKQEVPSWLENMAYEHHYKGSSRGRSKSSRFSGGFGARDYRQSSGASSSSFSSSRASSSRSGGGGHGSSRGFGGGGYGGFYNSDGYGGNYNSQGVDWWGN
T1 sequence (O15523 whole entry): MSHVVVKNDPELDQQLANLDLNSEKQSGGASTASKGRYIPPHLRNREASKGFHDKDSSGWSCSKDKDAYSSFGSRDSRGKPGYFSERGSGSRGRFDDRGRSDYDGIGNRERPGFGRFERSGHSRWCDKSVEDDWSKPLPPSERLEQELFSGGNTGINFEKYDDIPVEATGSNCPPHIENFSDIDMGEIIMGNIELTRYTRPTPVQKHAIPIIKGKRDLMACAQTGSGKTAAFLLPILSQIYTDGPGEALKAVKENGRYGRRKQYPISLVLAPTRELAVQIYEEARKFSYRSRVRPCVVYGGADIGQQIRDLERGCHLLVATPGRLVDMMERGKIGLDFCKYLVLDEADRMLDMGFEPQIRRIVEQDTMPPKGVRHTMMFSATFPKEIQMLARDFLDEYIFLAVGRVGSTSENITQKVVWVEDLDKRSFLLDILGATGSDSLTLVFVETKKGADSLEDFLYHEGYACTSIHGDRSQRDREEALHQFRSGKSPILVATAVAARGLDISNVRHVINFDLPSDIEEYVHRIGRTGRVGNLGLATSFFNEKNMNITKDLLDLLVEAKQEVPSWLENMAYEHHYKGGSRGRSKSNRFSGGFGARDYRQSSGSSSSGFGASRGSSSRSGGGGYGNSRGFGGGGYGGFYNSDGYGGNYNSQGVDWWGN
Sequence of MBP-ΔΔ DDX3X (O00571 132-607, stated change not applied): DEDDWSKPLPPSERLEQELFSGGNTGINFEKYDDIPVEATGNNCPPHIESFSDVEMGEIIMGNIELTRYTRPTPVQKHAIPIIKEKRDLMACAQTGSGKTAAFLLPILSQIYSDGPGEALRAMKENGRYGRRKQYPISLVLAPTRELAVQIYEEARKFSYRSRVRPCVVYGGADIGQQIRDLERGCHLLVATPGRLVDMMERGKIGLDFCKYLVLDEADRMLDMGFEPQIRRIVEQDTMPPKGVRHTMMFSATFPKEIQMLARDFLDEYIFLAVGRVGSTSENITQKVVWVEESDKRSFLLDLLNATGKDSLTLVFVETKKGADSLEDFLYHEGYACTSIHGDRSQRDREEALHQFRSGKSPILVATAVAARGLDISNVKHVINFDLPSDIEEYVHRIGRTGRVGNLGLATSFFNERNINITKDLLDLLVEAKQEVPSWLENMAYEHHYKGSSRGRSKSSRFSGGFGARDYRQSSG
Sequence of MBP-ΔΔ DDX3Y (O15523 130-605, stated change not applied): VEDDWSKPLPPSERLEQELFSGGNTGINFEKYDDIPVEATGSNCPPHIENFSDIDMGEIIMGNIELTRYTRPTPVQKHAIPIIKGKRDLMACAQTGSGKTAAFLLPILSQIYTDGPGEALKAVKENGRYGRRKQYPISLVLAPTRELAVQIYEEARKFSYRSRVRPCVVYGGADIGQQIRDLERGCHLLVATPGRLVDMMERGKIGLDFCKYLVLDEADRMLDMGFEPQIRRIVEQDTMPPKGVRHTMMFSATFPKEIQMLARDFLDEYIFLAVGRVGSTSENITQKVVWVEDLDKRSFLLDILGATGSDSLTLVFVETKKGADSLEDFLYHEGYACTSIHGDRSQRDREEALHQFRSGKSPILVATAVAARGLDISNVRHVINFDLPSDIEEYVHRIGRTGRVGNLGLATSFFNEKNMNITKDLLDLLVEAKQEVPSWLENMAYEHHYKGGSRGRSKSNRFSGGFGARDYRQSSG

B1: dsRNA I (18-mer/42-mer) (dsRNA)
RNA 1: ACCGCUGCCGUCGCUCCG
RNA 2: UUUUUUUUUUUUUUUUUUUUUUUUCGGAGCGACGGCAGCGGU
In the case of B1, the figures for the Kd in the data set with MBP-DDX3Y full-length [1] and with MBP-DDX3X full-length [2] were 884 nM and 519 nM, respectively. Further, the binding signal with MBP-ΔΔ DDX3X and with MBP-ΔΔ DDX3Y was > 3 fold Kd increase vs full-length each time. Besides, the “apparent K (half saturation)” value in the data set with MBP-DDX3Y full-length [3] was 3.7 ± 3 µM; in the data set with MBP-DDX3X full-length [4], 4.1 ± 2 µM.
